Assay results published in patent US20160304628A1.
Primed or numbered codes have the meaning given here. Where no end group is shown, it is not given here. [ ]: non-standard residue; d: D form. The star is where a group is joined. Hpra′ = its azide, alkyne or alkene has reacted where a group follows in round brackets; Man9 = Man9 glycan, attached by click reaction of Man9-azide with homopropargylglycine; maleimide‑biotin = maleimide-biotin reagent joined to deprotected Cys; For = O=C*

Assays:
[1] = molecular target: HIV broadly neutralizing monoclonal antibody 2G12; experiment: radiolabeled glycopeptide, 2G12 titration, protein G bead capture, scintillation counting
[2] = molecular target: HIV broadly neutralizing monoclonal antibody 2G12; experiment: BLI (BLItz), biotin-10F2 on streptavidin sensor, 2G12 in solution at 0.5 nM; global 1:1 fit
[3] = molecular target: HIV broadly neutralizing monoclonal antibody 2G12; experiment: BLI (BLItz), biotin-10F2 on streptavidin sensor, 2G12 in solution at 4 nM; global 1:1 fit
[4] = molecular target: HIV broadly neutralizing monoclonal antibody 2G12; experiment: BLI (BLItz), biotin-10F2 on streptavidin sensor, 2G12 in solution at 2 nM
[5] = molecular target: HIV broadly neutralizing monoclonal antibody 2G12; experiment: BLI (BLItz), biotin-10F2 on streptavidin sensor, 2G12 in solution at 1 nM; global 1:1 fit
[6] = molecular target: HIV broadly neutralizing monoclonal antibody 2G12; experiment: BLI (BLItz), biotin-10F2 on streptavidin sensor, 2G12 in solution at 32 nM
[7] = molecular target: HIV broadly neutralizing monoclonal antibody 2G12; experiment: BLI (BLItz), biotin-10F2 on streptavidin sensor, 2G12 in solution at 8 nM
[8] = molecular target: HIV broadly neutralizing monoclonal antibody 2G12; experiment: BLI (BLItz), biotin-10F2 on streptavidin sensor, 2G12 in solution at 16 nM
[9] = molecular target: HIV broadly neutralizing monoclonal antibody 2G12; experiment: BLI (BLItz), biotin-10F2 on streptavidin sensor, 2G12 in solution at 8 nM; global 1:1 fit
[10] = molecular target: HIV broadly neutralizing monoclonal antibody 2G12; experiment: BLI (BLItz), biotin-10F2 on streptavidin sensor, 2G12 in solution at 0.5 nM
[11] = molecular target: HIV broadly neutralizing monoclonal antibody 2G12; experiment: BLI (BLItz), biotin-10F2 on streptavidin sensor, 2G12 in solution at 2 nM; global 1:1 fit
[12] = molecular target: HIV broadly neutralizing monoclonal antibody 2G12; experiment: BLI (BLItz), biotin-10F2 on streptavidin sensor, 2G12 in solution at 1 nM
[13] = molecular target: HIV broadly neutralizing monoclonal antibody 2G12; experiment: BLI (BLItz), biotin-10F2 on streptavidin sensor, 2G12 in solution at 32 nM; global 1:1 fit
[14] = molecular target: HIV broadly neutralizing monoclonal antibody 2G12; experiment: BLI (BLItz), biotin-10F2 on streptavidin sensor, 2G12 in solution at 16 nM; global 1:1 fit
[15] = molecular target: HIV broadly neutralizing monoclonal antibody 2G12; experiment: BLI (BLItz), biotin-10F2 on streptavidin sensor, 2G12 in solution at 4 nM

B1: glycopeptide 10F12 (Fixed library, round 10) (peptide)
peptide: For-[Hpra′](Man9)CYVTVIPA[Hpra′](Man9)N[Hpra′](Man9)PEARLGIVCH[Hpra′](Man9)PGIRRGKALYGSGSLGHHHHHHRDYKDDDDK
modifications: not fully specified; cysteine pairing not given here
Fmax [1]: 90%
Kd [1]: 0.77 nM

B2: glycopeptide 10F5 (Fixed library, round 10) (peptide)
peptide: For-[Hpra′](Man9)SPHLPVLLCK[Hpra′](Man9)VLNDGRRIVQ[Hpra′](Man9)SCELP[Hpra′](Man9)VRRSGSGSLGHHHHHHRDYKDDDDK
modifications: not fully specified; cysteine pairing not given here
Fmax [1]: 93%
Kd [1]: 0.97 nM

For-[Hpra′](Man9)HPYNTSRTSA[Hpra′](Man9)[Hpra′](Man9)AALK[Hpra′](Man9)QVTD[Hpra′](Man9)YALALFHRILGSGSGC(maleimide‑biotin)A [biotinylated synthetic 10F2 glycopeptide 3]
Kd [2]: 1.37 nM
koff [2]: 0.000151 s⁻¹
kon [2]: 111000 M⁻¹ s⁻¹
Kd [3]: 1.37 nM
koff [3]: 0.000151 s⁻¹
kon [3]: 111000 M⁻¹ s⁻¹
Req [4]: 0.987
Kd [5]: 1.37 nM
koff [5]: 0.000151 s⁻¹
kon [5]: 111000 M⁻¹ s⁻¹
Req [6]: 1.39
Req [7]: 1.37
Req [8]: 1.41
Kd [9]: 1.37 nM
koff [9]: 0.000151 s⁻¹
kon [9]: 111000 M⁻¹ s⁻¹
Req [10]: 0.481
Kd [11]: 1.37 nM
koff [11]: 0.000151 s⁻¹
kon [11]: 111000 M⁻¹ s⁻¹
Req [12]: 0.682
Kd [13]: 1.37 nM
koff [13]: 0.000151 s⁻¹
kon [13]: 111000 M⁻¹ s⁻¹
Kd [14]: 1.37 nM
koff [14]: 0.000151 s⁻¹
kon [14]: 111000 M⁻¹ s⁻¹
Req [15]: 1.26
